This experiment has as its target T1, GST (UniProt P08515 1-218 = GST).
T1 construct: Control protein; also called control GST
Nature of the experiment: fluorescence anisotropy. In general terms: Polarisation of emitted light reports the rotation of a fluorescent probe.

Where no end group is shown, it is not given here. Fluorescein = N-terminal fluorescein label

T1 sequence (P08515 whole entry): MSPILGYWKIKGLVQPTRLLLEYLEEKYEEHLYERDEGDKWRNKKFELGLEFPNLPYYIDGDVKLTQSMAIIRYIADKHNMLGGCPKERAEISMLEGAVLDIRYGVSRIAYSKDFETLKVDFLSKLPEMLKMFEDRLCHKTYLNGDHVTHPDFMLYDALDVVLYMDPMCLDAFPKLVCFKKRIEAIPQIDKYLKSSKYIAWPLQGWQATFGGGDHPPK

B1: EQPLTPVTDL (peptide)
peptide: Fluorescein-EQPLTPVTDL
notes: also called nonphosphorylated Cdc25 Peptide
For B1, the binding result is listed as “no binding”.

These data come from patent US20050282740A1 (BETH ISRAEL DEACONESS MEDICAL CENTER, published 2005).
